Literature values in PMC3343272.

Target: Nonmuscle myosin IIA M32 1907-1938 (Homo sapiens) (UniProt P35579)
Assay: kinetic assay

Sequence of S100A4 (P26447 2-101): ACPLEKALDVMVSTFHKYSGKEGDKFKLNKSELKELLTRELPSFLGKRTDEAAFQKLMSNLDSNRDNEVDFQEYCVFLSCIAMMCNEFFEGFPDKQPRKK
Sequence of Nonmuscle myosin IIA M32 1907-1938 (Homo sapiens) (P35579 1907-1938): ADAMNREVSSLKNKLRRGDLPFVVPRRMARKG

Kd: 3000 nM
Substance: S100A4 (from UniProt P26447)
